Data on one molecule can be found in article PMC12442453.

For this experiment, the target named is T1, human EPOR, endogenous on TF-1 cells (human (endogenous in TF-1)) (UniProt P19235).
T1 sequence: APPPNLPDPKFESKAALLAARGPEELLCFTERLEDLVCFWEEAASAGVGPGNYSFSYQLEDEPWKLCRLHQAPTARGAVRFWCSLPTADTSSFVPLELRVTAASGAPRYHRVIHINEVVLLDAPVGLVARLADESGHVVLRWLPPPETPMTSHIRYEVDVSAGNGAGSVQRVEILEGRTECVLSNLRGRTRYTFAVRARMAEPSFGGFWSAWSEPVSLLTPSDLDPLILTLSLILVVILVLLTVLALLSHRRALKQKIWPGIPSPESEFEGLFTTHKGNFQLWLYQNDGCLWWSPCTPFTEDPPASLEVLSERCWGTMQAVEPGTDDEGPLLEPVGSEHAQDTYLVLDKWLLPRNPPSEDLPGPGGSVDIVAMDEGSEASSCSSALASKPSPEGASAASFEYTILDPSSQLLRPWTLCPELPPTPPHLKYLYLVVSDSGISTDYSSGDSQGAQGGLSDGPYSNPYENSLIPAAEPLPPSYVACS

B1: Db-Fc 1.3 (Fc fusion)
VH: EVQLVESGGGLVQPGGSLRLSCAASGFNLRSYYMHWVRQAPGKGLEWVASISPHYGYTYYADSVKGRFTISADTSKNTAYLQMNSLRAEDTAVYYCARHGYSAMDYWGQGTLVTVSS
VL: DIQMTQSPSSLSASVGDRVTITCRASQSVSSAVAWYQQKPGKAPKLLIYSASSLYSGVPSRFSGSRSGTDFTLTISSLQPEDFATYYCQQSSDSLFTFGQGTKVEIK
B1 came in with a UT-7/Epo cell proliferation, EC50; Tb-Fc2 fraction of variant 1.3 (putative tetramer) of 2 nM and a UT-7/Epo cell proliferation, maximum response; Tb-Fc2 fraction of variant 1.3 (putative tetramer) of 2.2e+06 RLU.
